Experiments:
[1] = target: T1, purified human PRL-3 (human, UniProt O75365 1-173, limits assumed); experiment: KinExA kinetic exclusion assay
T1 construct: Antigen of the KinExA analysis; also called PTP4A3; PRL-3 antigen

[2] = target: T1, purified human PRL-3; experiment: KinExA kinetic exclusion assay, purified antibody and purified human PRL-3

T1 sequence (O75365 whole entry): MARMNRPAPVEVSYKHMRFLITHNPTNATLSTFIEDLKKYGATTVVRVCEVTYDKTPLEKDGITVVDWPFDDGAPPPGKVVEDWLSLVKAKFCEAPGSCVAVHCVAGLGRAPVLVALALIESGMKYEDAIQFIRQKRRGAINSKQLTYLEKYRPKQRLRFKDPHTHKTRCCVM

koff [1]: 6.68e-05 s⁻¹
kon [1]: 1.06e+07 M⁻¹ s⁻¹
Kd [2]: 6.29 pM
B1: PRL3-zumab (antibody, V domains shown)
VH: QVQLVQSGAEVKKPGASVKVSCKASGYTFTNYYMHWVRQAPGQLEWMGWIYPGNVNTYYNEKFRGRVTITADTSASTAYMLSSLRSEDTAVYYCASEEKNYPWFAYWGQGTLVTS
VL: DTQLTQSPSSLSASVGDRVTICKASQSVEDDGENYMNWYQQKPGSPKLLIYAASNLESGIPARFSGSGSGTDFTLTISSLPEDFATYYCQQSNEDPFTFGSGTKLEIK
